{
  "source": "patent US20200010570A1",
  "target": "C1q (Fitzgerald, Cat. No. 32R-AC049) (UniProt P02745)",
  "sequence (P02745 23-245 limits assumed, chain 1 of 3)": "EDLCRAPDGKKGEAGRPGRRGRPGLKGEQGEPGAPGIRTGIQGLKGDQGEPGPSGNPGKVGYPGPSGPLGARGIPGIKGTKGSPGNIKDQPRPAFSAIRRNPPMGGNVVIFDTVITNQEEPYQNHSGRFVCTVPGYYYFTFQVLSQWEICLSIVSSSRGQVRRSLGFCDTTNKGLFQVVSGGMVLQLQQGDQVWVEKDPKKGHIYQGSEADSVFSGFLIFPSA",
  "sequence (P02746 28-253 limits assumed, chain 2 of 3, further chain)": "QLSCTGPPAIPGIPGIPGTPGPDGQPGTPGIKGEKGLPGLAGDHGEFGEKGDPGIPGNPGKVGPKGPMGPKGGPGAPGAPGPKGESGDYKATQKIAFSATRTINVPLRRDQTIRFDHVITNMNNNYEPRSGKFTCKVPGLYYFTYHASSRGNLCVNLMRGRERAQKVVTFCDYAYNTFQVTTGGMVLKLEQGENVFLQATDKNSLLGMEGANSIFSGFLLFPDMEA",
  "sequence (P02747 29-245 limits assumed, chain 3 of 3, further chain)": "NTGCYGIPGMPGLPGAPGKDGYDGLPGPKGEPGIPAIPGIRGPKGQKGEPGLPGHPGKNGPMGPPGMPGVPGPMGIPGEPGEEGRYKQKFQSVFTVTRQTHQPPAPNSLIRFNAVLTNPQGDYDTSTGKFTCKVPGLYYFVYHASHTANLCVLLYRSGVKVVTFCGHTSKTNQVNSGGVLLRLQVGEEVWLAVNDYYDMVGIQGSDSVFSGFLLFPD",
  "experiment": "ForteBio, biotinylated antibody on SA chip, C1q from 200 nM",
  "data": [
    {"substance": "Tecentriq® (Atezolizumab, purchased from Roche) (antibody)", "values": [
      {"measurement": "Kd", "value": 1.3, "unit": "nM"},
      {"measurement": "koff", "value": 0.00176, "unit": "s⁻¹"},
      {"measurement": "kon", "value": "1.36e+06", "unit": "M⁻¹ s⁻¹"}
    ]}
  ]
}
